Measurements as given in doi:10.1101/2025.08.29.673013.

Legend:
[1] = molecular target: Biotinylated SUMO [SUMO: Q12306]; assay: BLI
[2] = molecular target: Full-length human PARP2 isoform 2 (amino acids 1–570) (human) (UniProt Q9UGN5); assay: BLI
[3] = molecular target: N-terminal region of PARP2 (NTR; aa 1–80) (human) (UniProt Q9UGN5); assay: ITC
[4] = molecular target: NTR-WGR construct of PARP2 (aa 1–205) (human) (UniProt Q9UGN5); assay: ITC
[5] = molecular target: WGR-CAT construct of PARP2 (aa 81–570) (human) (UniProt Q9UGN5); assay: ITC
[6] = molecular target: Full-length human PARP2 isoform 2 (amino acids 1–570) (human) (UniProt Q9UGN5); assay: ITC

| Kd [1] | koff [1] | kon [1] | IC50 [2] | Kd [3] | Kd [4] | Kd [5] | Kd [6] | Substance |
| --- | --- | --- | --- | --- | --- | --- | --- | --- |
| 66.8 µM | 0.301 s⁻¹ | 4500 M⁻¹ s⁻¹ | – | – | – | – | – | Full-length human PARP2 isoform 2 (amino acids 1–570) (from UniProt Q9UGN5-2 1-570) (enzyme) |
| – | – | – | 0.82 µM | 201 µM | 125 µM | 1000 µM | 45.6 µM | Small ubiquitin like modifier (SUMO) (from UniProt Q12306 1-101) (natural protein) |
